Measurements from US20160200782A1 (MOERAE MATRIX, published 2016).

T1: Aurora-A(h) (human, UniProt O14965 1-403)
T1 sequence (looked up): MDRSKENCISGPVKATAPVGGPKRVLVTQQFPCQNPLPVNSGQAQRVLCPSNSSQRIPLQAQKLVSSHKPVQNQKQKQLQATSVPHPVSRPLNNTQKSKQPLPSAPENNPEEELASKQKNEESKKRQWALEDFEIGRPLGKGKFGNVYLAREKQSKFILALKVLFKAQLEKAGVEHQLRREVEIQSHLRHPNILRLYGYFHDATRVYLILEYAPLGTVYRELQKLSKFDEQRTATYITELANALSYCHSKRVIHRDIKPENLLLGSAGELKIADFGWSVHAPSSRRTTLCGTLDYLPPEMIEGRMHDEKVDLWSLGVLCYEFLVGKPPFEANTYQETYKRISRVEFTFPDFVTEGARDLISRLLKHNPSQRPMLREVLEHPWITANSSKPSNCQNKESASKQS

T2: Flt1(h) (human, UniProt P17948 781-1338, limits assumed)
T2 sequence (looked up): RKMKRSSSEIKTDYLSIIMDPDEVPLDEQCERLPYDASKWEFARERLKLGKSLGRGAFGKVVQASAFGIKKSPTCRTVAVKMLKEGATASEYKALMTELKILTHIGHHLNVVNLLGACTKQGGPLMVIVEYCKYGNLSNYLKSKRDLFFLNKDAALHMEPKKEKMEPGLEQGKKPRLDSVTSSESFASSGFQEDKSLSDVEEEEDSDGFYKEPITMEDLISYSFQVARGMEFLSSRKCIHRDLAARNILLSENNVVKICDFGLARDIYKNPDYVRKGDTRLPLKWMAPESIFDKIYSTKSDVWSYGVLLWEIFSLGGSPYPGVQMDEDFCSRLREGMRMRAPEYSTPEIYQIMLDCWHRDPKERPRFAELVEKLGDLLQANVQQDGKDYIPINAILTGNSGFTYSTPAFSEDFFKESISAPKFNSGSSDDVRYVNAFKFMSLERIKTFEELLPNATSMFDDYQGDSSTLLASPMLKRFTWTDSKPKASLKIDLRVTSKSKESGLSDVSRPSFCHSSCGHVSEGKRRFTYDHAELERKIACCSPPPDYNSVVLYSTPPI

T3: GCK(h) (human, UniProt Q12851 1-820, limits assumed)
T3 sequence (looked up): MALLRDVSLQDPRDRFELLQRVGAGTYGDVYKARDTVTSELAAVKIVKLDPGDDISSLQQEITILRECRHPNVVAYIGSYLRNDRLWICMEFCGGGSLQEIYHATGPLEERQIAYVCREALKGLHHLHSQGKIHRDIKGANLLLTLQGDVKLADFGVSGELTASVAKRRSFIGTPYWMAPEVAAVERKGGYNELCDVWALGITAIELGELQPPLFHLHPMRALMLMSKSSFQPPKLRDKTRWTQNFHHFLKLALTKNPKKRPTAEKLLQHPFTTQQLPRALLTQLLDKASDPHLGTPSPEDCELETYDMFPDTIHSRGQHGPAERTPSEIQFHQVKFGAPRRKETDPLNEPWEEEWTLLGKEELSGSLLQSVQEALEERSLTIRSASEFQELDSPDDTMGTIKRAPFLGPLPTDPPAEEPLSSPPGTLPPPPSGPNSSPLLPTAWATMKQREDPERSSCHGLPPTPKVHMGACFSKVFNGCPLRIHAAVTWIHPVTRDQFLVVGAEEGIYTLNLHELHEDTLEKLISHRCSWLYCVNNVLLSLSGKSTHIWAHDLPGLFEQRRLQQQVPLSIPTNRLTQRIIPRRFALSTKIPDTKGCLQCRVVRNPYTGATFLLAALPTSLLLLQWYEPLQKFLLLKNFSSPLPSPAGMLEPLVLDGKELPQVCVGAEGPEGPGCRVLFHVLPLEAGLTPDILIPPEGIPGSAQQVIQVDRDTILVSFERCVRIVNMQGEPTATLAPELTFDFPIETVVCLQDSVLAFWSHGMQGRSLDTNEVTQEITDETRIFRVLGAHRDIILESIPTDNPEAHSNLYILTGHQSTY

T4: Txk(h) (human, UniProt P42681 1-527, limits assumed)
T4 sequence (looked up): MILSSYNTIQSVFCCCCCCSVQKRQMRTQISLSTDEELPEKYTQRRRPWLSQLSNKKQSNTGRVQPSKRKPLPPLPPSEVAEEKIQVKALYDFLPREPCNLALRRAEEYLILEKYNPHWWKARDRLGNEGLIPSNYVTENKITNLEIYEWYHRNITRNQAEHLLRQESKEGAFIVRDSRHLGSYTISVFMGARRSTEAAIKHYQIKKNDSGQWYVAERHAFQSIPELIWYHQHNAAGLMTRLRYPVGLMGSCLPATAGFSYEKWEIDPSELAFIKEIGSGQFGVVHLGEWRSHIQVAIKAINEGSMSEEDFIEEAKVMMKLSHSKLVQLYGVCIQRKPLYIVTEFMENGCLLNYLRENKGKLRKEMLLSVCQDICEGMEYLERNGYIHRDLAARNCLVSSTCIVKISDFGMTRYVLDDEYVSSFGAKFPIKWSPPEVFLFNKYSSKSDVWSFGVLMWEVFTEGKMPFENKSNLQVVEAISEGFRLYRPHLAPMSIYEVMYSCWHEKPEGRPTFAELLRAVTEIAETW


Legend:
Test in all cases: cell-based or functional assay
CDK1/cyclinB(h) = CDK1/cyclinB(h) (human, UniProt P06493 1-297; P06493 1-297)
Fgr(h) = Fgr(h) (human, UniProt P09769 1-529, limits assumed)
EGFR(L861Q)(h) = EGFR(L861Q)(h) (human, UniProt P00533 696-1210, limits assumed)
TrkB(h) = TrkB(h) (human, UniProt Q16620 455-822, limits assumed)
Pim-1(h) = Pim-1(h) (human, UniProt P11309 1-313)
Aurora-A(h) = target: T1, Aurora-A(h)
Flt1(h) = target: T2, Flt1(h)
GCK(h) = target: T3, GCK(h)
Txk(h) = target: T4, Txk(h)
IR(h) = IR(h) (human, UniProt P06213 1005-1310, limits assumed)
MLK1(h) = MLK1(h) (human, UniProt P80192 132-413, limits assumed)
Note: test concentration or dose not given here.

| % activity (CDK1/cyclinB(h)) [%] | % activity (Fgr(h)) [%] | % activity (EGFR(L861Q)(h)) [%] | % activity (TrkB(h)) [%] | % activity (Pim-1(h)) [%] | % activity (Aurora-A(h)) [%] | % activity (Flt1(h)) [%] | % activity (GCK(h)) [%] | % activity (Txk(h)) [%] | % activity (IR(h)) [%] | % activity (MLK1(h)) [%] | Binder |
| --- | --- | --- | --- | --- | --- | --- | --- | --- | --- | --- | --- |
| 74 | 47 | 22 | 8 | 7 | 119 | 48 | 66 | 37 | 85 | 33 | KAFAKLAARLYRKALARQLGVAA [MMI-0400] |
| 73 | 60 | 25 | 5 | 8 | 92 | 69 | 70 | 48 | 96 | 40 | FAKLAARLYRKALARQLGVAA [MMI-0300] |
